Source: US20060121535

Assays:
[1] = target: GST-Crkl (full length), P46109
[2] = target: T1, Abl peptide NH2-EAIYAAPFAKKK-COOH (SEQ. ID. NO: 4), acrylic-labeled, photocleavable
T1 chain: EAIYAAPFAKKK

[3] = target: T2, GST-Crkl (intra SH3), P46109
T2 chain: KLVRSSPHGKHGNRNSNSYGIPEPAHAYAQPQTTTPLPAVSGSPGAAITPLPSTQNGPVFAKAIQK

[4] = target: GST-Crkl (SH3), P46109
GST-Crkl (SH3), P46109, sequence (P46109 120-303): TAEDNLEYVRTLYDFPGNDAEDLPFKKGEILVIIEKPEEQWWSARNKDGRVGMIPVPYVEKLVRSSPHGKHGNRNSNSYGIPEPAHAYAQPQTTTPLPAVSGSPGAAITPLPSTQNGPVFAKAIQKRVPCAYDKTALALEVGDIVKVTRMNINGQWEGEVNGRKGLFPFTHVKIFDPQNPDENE

GST-Crkl (full length), P46109, sequence (P46109 whole entry): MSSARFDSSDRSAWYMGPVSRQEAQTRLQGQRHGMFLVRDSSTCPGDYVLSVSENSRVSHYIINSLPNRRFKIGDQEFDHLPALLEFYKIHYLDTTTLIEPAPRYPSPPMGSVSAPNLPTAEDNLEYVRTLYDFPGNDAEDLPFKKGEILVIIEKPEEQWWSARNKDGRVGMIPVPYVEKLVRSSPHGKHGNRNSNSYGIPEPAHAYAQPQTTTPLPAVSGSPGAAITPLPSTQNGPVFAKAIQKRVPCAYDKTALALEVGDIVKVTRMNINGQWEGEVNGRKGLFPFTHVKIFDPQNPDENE

B1: v-Abl tyrosine kinase (Calbiochem / EMD Biosciences) (protein)
chain: YITPVNSLEKHSWYHGPVSRNAAEYLLSSGINGSFLVRESESSPGQRSISLRYEGRVYHYRINTASDGKLYVSSESRFNTLAELVHHHSTVADGLITTLHYPAPKRNKPTIYGVSPNYDKWEMERTDITMKHKLGGGQYGEVYEGVWKKYSLTVAVKTLKEDTMEVEEFLKEAAVMKEIKHPNLVQLLGVCTREPPFYIITEFMTYGNLLDYLRECNRQEVSAVVLLYMATQISSAMEYLEKKNFIHRDLAARNCLVGENHLVKVADFGLSRLMTGDTYTAHAGAKFPIKWTAPESLAYNKFSIKSDVWAFGVLLWEIATYGMSPYPGIDLSQVYELLEKDYRMERPEGCPEKVYELMRACWQWNPSDRPSFAEIHQAFETMFQESSISD
tyrosine phosphorylation of bead-immobilized substrate, anti-phosphotyrosine Western blot [1]: GST-Crkl (full-length) is not phosphorylated by v-Abl
tyrosine phosphorylation of surface spots, ECL film (Example 9) [1]: Qualitative detection of phosphorylated tyrosine for the 833 and 1660 ng spots of the two larger forms of GST-Crkl can be seen
tyrosine phosphorylation on protein array, ECL [1]: Phosphorylation of GST-Crkl (full-length) is minimal (data not shown)
extent of phosphorylation of the immobilized peptide, MALDI mass spectrometry [2]: the extent of phosphorylation was estimated to be approximately 90%
tyrosine phosphorylation of bead-immobilized substrate, anti-phosphotyrosine Western blot [3]: v-Abl displays tyrosine kinase activity toward GST-Crkl (SH3) and GST-Crkl (intra SH3) in the absence of imatinib
tyrosine phosphorylation on protein array, ECL, 2 h reaction [3]: v-Abl demonstrates a slight preference for the GST-Crkl (SH3) substrate relative to the GST-Crkl (intra SH3) substrate
tyrosine phosphorylation of bead-immobilized substrate, anti-phosphotyrosine Western blot [4]: v-Abl displays tyrosine kinase activity toward GST-Crkl (SH3) and GST-Crkl (intra SH3) in the absence of imatinib
tyrosine phosphorylation of surface spots, ECL film (Example 9) [4]: Qualitative detection of phosphorylated tyrosine for the 833 and 1660 ng spots of the two larger forms of GST-Crkl can be seen
tyrosine phosphorylation on protein array, ECL, 2 h reaction [4]: v-Abl demonstrates a slight preference for the GST-Crkl (SH3) substrate relative to the GST-Crkl (intra SH3) substrate
